Data published in patent US12558350B2, “Compositions and methods for treatment” (Bausch + Lomb Ireland Limited, priority 2005, dated 2026).

Legend:
LFA-1 [1] = biological target: T1, LFA-1 (Homo sapiens, UniProt P05107+P20701); test: LFA-1/small molecule ELISA, antagonist competition with compound 2B; details: 25 nM compound 2B; FIG. 8B; read-out: IC50, inhibition of binding of compound 2B to LFA-1
T1 construct: made in house; host or cells: human 293 cells
Procedure: 96-well plates were coated with 5 μg/ml (33.3 nM) mouse anti-human 82 integrin (a non-function blocking antibody) in phosphate-buffered saline (PBS) overnight at 4° C. The plates were blocked with assay buffer (20 mM Hepes, pH 7.2, 140 mM NaCl, 1 mM MnCl2, 0.5% bovine serum albumin (BSA) and 0.05% Tween-20) for 1 hour at room temperature. After washing in buffer (50 mM Tris-HCl, pH 7.5, 100 mM NaCl, 1 mM MnCl2, and 0.05% Tween-20), 8 nM LFA-1 (LFA-1/ICAM-1 ELISA) or 2 nM LFA-1 (LFA-1/small molecule ELISA) were added, followed by incubation for 1 h at 37° C. […] In the LFA-1/small molecule ELISA, the diluted antagonists and 25 nM compound 2B were added concurrently to the plates, followed by a 2-hour incubation at 37° C. Sheep anti-fluorescein-HRP was added after a wash and incubated for one hour at 37° C. For both assays, after washing, the bound HRP-conjugated antibodies were detected by addition of tetramethylbenzidine (TMB) followed by measurement of the absorbance of the product at 450 nm after the addition of 1 M H3PO4 to stop the reaction. The IC50 values for each curve were determined by fitting to the four-parameter equation described above using KaleidaGraph software.

LFA-1 [2] = biological target: T1, LFA-1; test: LFA-1/small molecule ligand binding ELISA; details: FIG. 10B, D, F
Procedure: (§1) Pharmacologic Analysis of Drug-Receptor Interaction, Lippincott-Raven, Philadelphia). […] The order of antagonist concentrations was, -[…]-(lowest added antagonist concentration), -Δ-, -μ-, -♦-, -▪-, -σ- to -λ-(highest antagonist concentration). The fits of the data are shown as the solid lines. The data shown are from one plate and are representative of a minimum of two experiments.
(§2) In all cases the ligand was added concurrently with the antagonist. The plates were incubated for 6 h at 37° C. to approach equilibrium conditions after antagonist and ligand addition, before wash and addition of the detection antibody. The EC50 values for each curve were determined by fitting with a four parameter model as described above. […] The slopes of the plots of the Log (Conc. ratio −1) vs. Antagonist concentration are calculated by fitting the line to the linear equation, Y=A+BX.

LFA-1/ICAM-1 = biological target: T2, LFA-1/ICAM-1 (Homo sapiens, UniProt P05107+P20701); test: LFA-1/ICAM-1 ligand binding ELISA with Schild analysis
T2 construct: made in house; host or cells: human 293 cells
T2 sequence (P20701 26-1170): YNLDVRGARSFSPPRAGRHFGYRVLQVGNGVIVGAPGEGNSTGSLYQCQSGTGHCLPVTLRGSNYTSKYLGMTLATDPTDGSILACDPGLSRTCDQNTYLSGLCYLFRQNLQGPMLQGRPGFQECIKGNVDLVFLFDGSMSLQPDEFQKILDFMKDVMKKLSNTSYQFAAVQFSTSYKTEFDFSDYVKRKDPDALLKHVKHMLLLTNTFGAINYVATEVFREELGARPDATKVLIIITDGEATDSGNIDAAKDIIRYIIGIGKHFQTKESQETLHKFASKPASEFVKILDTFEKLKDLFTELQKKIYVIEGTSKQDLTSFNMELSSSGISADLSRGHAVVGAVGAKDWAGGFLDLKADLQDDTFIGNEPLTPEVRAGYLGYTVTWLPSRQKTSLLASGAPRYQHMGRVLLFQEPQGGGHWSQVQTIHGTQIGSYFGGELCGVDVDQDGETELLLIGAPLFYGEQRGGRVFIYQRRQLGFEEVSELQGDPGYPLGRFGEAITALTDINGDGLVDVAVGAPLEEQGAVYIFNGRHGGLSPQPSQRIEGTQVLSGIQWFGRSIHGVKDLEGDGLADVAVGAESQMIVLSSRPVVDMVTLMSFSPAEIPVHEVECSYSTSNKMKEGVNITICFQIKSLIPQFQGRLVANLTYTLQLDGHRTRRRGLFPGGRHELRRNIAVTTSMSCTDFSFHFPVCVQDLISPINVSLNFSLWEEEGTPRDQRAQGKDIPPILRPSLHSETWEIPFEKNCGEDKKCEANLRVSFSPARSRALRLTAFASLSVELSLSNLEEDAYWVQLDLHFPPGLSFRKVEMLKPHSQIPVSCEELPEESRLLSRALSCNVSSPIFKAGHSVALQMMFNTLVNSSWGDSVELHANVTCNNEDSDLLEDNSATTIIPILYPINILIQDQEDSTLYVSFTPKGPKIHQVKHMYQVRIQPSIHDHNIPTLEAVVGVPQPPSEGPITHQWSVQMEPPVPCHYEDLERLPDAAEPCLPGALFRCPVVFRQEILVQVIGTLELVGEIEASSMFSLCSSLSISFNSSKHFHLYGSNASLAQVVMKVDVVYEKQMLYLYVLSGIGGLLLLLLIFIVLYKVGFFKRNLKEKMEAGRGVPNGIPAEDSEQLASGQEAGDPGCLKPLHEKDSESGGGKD
T2 sequence (P05107 23-769): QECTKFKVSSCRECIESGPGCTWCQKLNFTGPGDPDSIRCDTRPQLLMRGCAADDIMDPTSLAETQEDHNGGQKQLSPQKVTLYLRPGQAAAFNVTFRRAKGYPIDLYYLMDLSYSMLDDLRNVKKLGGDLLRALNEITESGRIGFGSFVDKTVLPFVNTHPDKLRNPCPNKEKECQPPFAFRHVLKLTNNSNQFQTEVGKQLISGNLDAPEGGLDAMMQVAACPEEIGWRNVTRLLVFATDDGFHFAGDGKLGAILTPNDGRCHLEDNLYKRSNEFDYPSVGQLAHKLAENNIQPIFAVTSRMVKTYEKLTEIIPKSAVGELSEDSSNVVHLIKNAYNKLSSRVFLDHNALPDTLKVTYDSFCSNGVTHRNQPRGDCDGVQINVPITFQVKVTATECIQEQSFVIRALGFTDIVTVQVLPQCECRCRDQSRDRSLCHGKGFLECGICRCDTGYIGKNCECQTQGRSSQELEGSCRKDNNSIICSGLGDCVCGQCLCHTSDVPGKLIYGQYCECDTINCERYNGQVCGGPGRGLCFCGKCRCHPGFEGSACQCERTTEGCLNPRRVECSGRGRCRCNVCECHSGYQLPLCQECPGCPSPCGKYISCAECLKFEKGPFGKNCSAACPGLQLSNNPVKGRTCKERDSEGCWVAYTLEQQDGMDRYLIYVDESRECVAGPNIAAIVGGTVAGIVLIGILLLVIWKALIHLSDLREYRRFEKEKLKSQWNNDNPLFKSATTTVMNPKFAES
Excerpt: as §1
This model is based upon the assumptions that equiactive responses in an assay are the result of equivalent occupancy of receptor by ligand and that maximal binding is unchanged by the presence of antagonist. In a Schild analysis, the dose ratio is the ratio of the EC50 values in the presence and absence of antagonist and is a measure of the ligand concentrations leading to equiactive responses. This dose ratio was determined for each concentration of antagonist and the Schild regressions were plotted as shown in FIG. 11.
as §2

T1 sequence (P20701 26-1170): as the sequence (P20701 26-1170) above
T1 sequence (P05107 23-769): as the sequence (P05107 23-769) above

B1: sICAM-1: truncated form of native ICAM-1 without the transmembrane and cytoplasmic domains, with intact LFA-1 binding epitope; R&D Systems (protein, UniProt P05362 28-480, looked up)
extracellular domain: QTSVSPSKVILPRGGSVLVTCSTSCDQPKLLGIETPLPKKELLLPGNNRKVYELSNVQEDSQPMCYSNCPDGQSTAKTFLTVYWTPERVELAPLPSWQPVGKNLTLRCQVEGGAPRANLTVVLLRGEKELKREPAVGEPAEVTTTVLVRRDHHGANFSCRTELDLRPQGLELFENTSAPYQLQTFVLPATPPQLVSPRVLEVDTQGTVVCSLDGLFPVSEAQVHLALGDQRLNPTVTYGNDSFSAKASVSVTAEDEGTQRLTCAVILGNQSQETLQTVTIYSFPAPNVILTKPEVSEGTEVTVKCEAHPRAKVTLNGVPAQPLGPRAQLLLKATPEDNGRSFSCSATLEVAGQLIHKNQTRELRVLYGPRLDERDCPGNWTWPENSQQTPMCQAWGNPLPELKCLKDGTFPLPIGESVTVTRDLEGTYLCRARSTQGEVTRKVTVNVLSPRYE
modifications: extracellular domain
notes: R&D Systems
IC50 (LFA-1 [1]): 1200 nM | effect of increasing antagonist concentration on compound 2B binding curves (LFA-1 [2]): showed a similar effect | effect of increasing antagonist concentration on ICAM-1-Ig binding curves (LFA-1/ICAM-1; FIG. 10A, C, E): shifted the ICAM-1-Ig binding curves rightward to higher EC50 values | slope of Schild regression (LFA-1/ICAM-1; ligand ICAM-1-Ig, FIG. 11): 1.26 | y-intercept of Schild regression (LFA-1/ICAM-1; ligand ICAM-1-Ig, FIG. 11): 8.51
